These results are taken from patent US20260022171A1.

The target in experiment [1] is cynomolgus monkey CD200R1 on cells (cynomolgus monkey). Kind of experiment: cell-surface blocking, MfCD200-Fc on K562 cells expressing MfCD200R1.
For experiment [2] the target is unchanged. Description: flow cytometry, biotinylated antibody on cynomolgus monkey CD4+ T cells (PBMC), streptavidin-PE, MFI; monkey #143. In general terms: Flow cytometry measures light scatter and fluorescence of single cells or particles in a stream.
The target is the same in experiment [3]. Kind of experiment: flow cytometry, biotinylated antibody on cynomolgus monkey CD4+ T cells (PBMC), streptavidin-PE, MFI; monkey #0013.
For experiment [4] the target is unchanged. Description: flow cytometry on cynomolgus monkey CD4+ T cells.
Experiment [5] has the same target. Kind of experiment: flow cytometry, biotinylated antibody on cynomolgus monkey CD4+ T cells (PBMC), streptavidin-PE, MFI; monkey #0023.
The target is the same in experiment [6]. Kind of experiment: cell-surface binding, cynomolgus CD4+ T cells.
For experiment [7], the target named is human CD200R1 on cells (human) (UniProt Q8TD46). Description: flow cytometry, biotinylated antibody on human CD4+ T cells (pan T cells of a healthy donor), streptavidin-PE, geometric mean; unit from the axis Log M.
The target is the same in experiment [8]. Description: flow cytometry, blocking: U937 cells stably expressing hu-CD200R1 incubated with the antibody, then with 55 nM huCD200-Fc-Flag, detected with anti-Flag PE (MFI).
Experiment [9] shares this target. Description: cell-based or functional assay.
For experiment [10] the target is unchanged. Kind of experiment: flow cytometry, biotinylated antibody on human CD8+ T cells (pan T cells of a healthy donor), streptavidin-PE, geometric mean; unit from the axis log M.

B1: h10F6.V1 (antibody, IgG1, V domains shown)
VH: EVQLQESGPGLVKPSETLSLTCTVSGFSLTNYRVSWVRQPPGKGLEWLGVMYAGGGTNYNSVFKSRLTISKDNSKNQVSLKLSSVTAADTAVYYCARERPLTGVMDNWGQGTLVTVSS
VL: DIVLTQSPDSLAVSLGERATINCRASESVDYSGNSFMHWFQQKPGQPPKLLIYRASNLESGIPDRFSGSGSRTDFTLTISSLQAEDVAVYYCHQSNWDPPTFGGGTKVEIKR
In experiment [1], B1 showed an IC50 of 0.5 nM. For the same molecule, the EC50 (read off the curve) was determined as 1 nM in [2], 1 nM in experiment [3] and 0.9 nM in experiment [5]. Besides, the values for the half-maximal effective concentration (EC50) in experiment [4] and in [6] were 0.34 to 1.54 nM and 1.3 nM, respectively.

B2: h22.1 (humanized 22.1 IgG) (antibody, V domains shown)
VH: EVQLVQSGAEVKKPGASVKVSCKASGYTFTSYVMFWVRQAPGQRLEWIGYINPYNDDTKYNEKFKGRATLTSDKSASTAYMELSSLRSEDTAVYYCAREDYYGSRFVYWGQGTLVTVSS
VL: DIQLTQSPSSLSASVGDRVTITCRASKSVSTSGYSYMHWYQQKPGKPPKLLIYLASNLESGVPSRFSGSGSGTDFTLTISSLQPEDFATYYCQHNRELLTFGGGTKVEIKR
Regarding B2, the results for the EC50 in experiment [7] and in [10] were 3.04 nM and 1.91 nM, respectively. In experiment [8], the IC50 stood at 1.8 nM. Further, the pDok2 induction, western blot, U937 cells expressing CD200R1 in [9] was 5.6 nM.

For orientation: IC50 means the midpoint of a concentration-inhibition curve. As usually defined, the EC50 (read off the curve) is the concentration giving half of the maximal effect. What is called EC50 is the concentration needed to bring the measured effect to its halfway point.
